These results are taken from EP4361176A1.

Numbering of substitutions follows the chain as printed.

For test [1], the target named is human FcγRIIb extracellular domain with C-terminal His-tag (human) (UniProt P31994). Put plainly: SPR (Biacore T200), FcγRIIb, amount bound per unit captured antibody.
Test [2] shares this target. Put plainly: SPR; binding amount / that of 04H1656-G1m/04L1610-lam1. For orientation: SPR reads the build-up and loss of mass on a sensor chip optically.

Sequence of human FcγRIIb extracellular domain with C-terminal His-tag (human) (P31994 43-217): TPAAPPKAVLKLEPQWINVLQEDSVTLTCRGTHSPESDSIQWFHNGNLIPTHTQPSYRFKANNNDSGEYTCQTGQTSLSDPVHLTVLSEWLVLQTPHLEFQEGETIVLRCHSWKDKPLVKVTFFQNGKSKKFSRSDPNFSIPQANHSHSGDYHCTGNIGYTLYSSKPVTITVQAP

B1: 04H1654-KT473/04L1610-lam1//04H1656-HT451/04L1610-lam1 (antibody)
heavy 1: QVQLVESGGGVVQPGGSLRLSCAASGFTFSSKTMNWVRQAPGKGLEWVSSISTQSHYIYYARSVRGRFTISRDNAKNSLYLQMNSLRAEDTAVYYCARYGKREDMLWVFDYWGQGTLVTVSSASTKGPSVFPLAPSSKSTSGGTAALGCLVKDYFPEPVTVSWNSGALTSGVHTFPAVLQSSGLYSLSSVVTVPSSSLGTQTYICNVNHKPSNTKVDKRVEPKSCDKTHTCPPCPAPEFQWGPMVFLFPPKPKDVLMISRTPEVTCVVVDVSDEEPEVKFNWYVDGVEVHNAKTKPREEQYNATYRVVSVLPVLHQDWLNGKEYKCKVSNDALPAPIEKTISKAKGQPREPQVYTLPPSRKEMTKNQVSLTCLVKGFYPSDIAVEWESNGQPENNYKTTPPVLDSDGSFFLYSKLTVDKSRWQQGNVFSCSVMHEALHAHTTRKELSLSP
heavy 2: B1 heavy 1 with R62E, K101A, F239L, Q240L, W241A, M244S, D273H, K339E, K361E, K444E
light: QSALTQPPSASGSPGQSVTISCEGPSTGVGDYNWVHWYQQHPGKAPKLMIYFTSKKPSGVPDRFSGSKSGNTASLTVSGLQAEDEADYYCQTYAAPLGPMFGGGTKLTVLGQPKAAPSVTLFPPSSEELQANKATLVCLISDFYPGAVTVAWKADSSPVKAGVETTTPSKQSNNKYAASSYLSLTPEQWKSHRSYSCQVTHEGSTVEKTVAPTECS
Molecule B1 had a Binding amount in test [1] of 0.012. This molecule showed a Relative binding amount in test [2] of 1.5.
